According to publication PMC2362362 (British Journal of Cancer, 1999):

B1: Ki-4 single-chain variable fragment (scFv), soluble (scFv, V domains shown)
VH: QVKLQESGTELAKPGAAVKMSCKASGYTFTDYWMHWVKQRPGQGLEWIGYINPNTAYTDYNQKFKDKATLTADKSSSTAYMQLRSLTSEDSAVYYCAKKTTQTTWGFPFWGQGTTVTVSS
VL: DIVLTQSPKSMAMSVGERVTLSCKASENVDSFVSWYQQKPGQSPKLLIYGASNRYTGVPDRFAGSGSGRDFTLTISSVQAEDLADYHCGQNYRYPLTFGAGTKLEIK
notes: also called Ki-4 scFv; His-tagged Ki-4 scFv
B2: anti-CD30 monoclonal antibody Ki-4 (antibody, V domains shown)
VH: B1 VH
VL: B1 VL
notes: also called Ki-4 mAb; Ki-4 whole antibody; copies: 2 + 2

Biological target: T1, extracellular domain of the human CD30 receptor fused to the hinge, CH2 and CH3 domain of human IgG1 … (Homo sapiens (Human)., UniProt P28908)
T1 construct: also called recombinant, human sCD30-Fc protein
T1 sequence (P28908 19-385): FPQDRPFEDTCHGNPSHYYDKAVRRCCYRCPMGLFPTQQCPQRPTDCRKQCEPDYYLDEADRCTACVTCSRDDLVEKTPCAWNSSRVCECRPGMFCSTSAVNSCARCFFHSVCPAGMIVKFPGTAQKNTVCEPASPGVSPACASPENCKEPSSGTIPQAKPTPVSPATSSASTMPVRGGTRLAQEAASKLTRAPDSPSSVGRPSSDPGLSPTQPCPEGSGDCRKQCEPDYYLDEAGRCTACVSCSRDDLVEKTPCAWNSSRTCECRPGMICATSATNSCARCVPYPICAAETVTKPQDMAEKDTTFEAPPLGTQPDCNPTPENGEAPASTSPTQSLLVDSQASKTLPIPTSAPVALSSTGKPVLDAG
Assay: SPR; BIAcore 2000; sCD30-Fc covalently coupled to a CM-5 sensorchip (450 RU, 'low density'); surface saturated by multiple injections of antibody or fragment, flow 20 ul/min; dissociation rates by curve fitting (monovalent for the scFv, bivalent for the mAb)
Settings: both partners purified

Binder	koff [s⁻¹]	t1/2 of the antibody-antigen complex (=ln2/koff) [h]
B1	0.00018	1.07
B2	0.00012	1.6
